System: GSC7 cells
Experiment: Nano-Glo Dual-Luciferase Reporter (Nanoglo DLR) assay of enhancer activity, fold change to mCMV
Format: cell-based, human
Details: expression fold change of the individual enhancer compared to mCMV
Summary of the method: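 160 bp enhancer fragments in NanoLuc reporter plasmids were co-transfected 1:10 with PGK-firefly luciferase into GSC7 cells using Lipofectamine LTX/Plus and read two days later. NanoLuc signal was normalised to firefly, then expressed as fold change to the empty mCMV vector.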

B1: ID1101: enhancer fragment, SEQ ID NO: 4 (nucleic acid)
DNA: GTGAGTGTGACTCACATGCTGGCATCAGAGCCCCTCTTAGAGCTTAGAACACTGGGCCTCTGTCAGGCAAAGAAAAGGAGTCCCTATGAATAGCCATCTCCACAAATAGCAGTTACTGTCACTTCTTAAAAGACACAAGCATGGCTGGAGACCGGCACTG
Fold change (Median): 258.8 fold
